Experimental data: the RNAGym collection of RNA variant scans (doi:10.1073/pnas.2313332121)

B1: TPR t1 (parent)
chain: GACCAAUCUGCCCUCAGAGCUCGAGAACAUCUUCGGAUGCAGAGGAGGCAGGCUUCGGUGGCGCGAUAGCGCCAACGUCCUCAACCUCCAAUGCAUCCCACCACAUGAUGAUGCCUGAAGAGCCUUGGUUUUUUG

Variants of: B1
Assay: polymerase ribozyme fitness, log enrichment relative to wild type (log ratio); higher = more active; in vitro selection for triplet polymerase activity
In short: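 Streptavidin-bead capture of gel-excised extended constructs, followed by RT-PCR, closed a single triplicate in vitro selection round. That round began by annealing PCR-built, transcribed mutant libraries of each subunit of a heterodimeric triplet polymerase ribozyme with a biotinylated primer, the partner subunit and triplets, then incubating them frozen at −7 °C. After Illumina sequencing of inputs and outputs, genotypes needed ≥10 input reads and ≥1 read per output. Fitness is the base-2 logarithm of genotype enrichment over wild-type enrichment, using inverse-variance-weighted replicate averages.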

Variant	polymerase ribozyme fitness (log ratio)
U32C A84U C123G U131C	1.03
G47A A111U	-4.17
C22G A118G A121U	-1.54
C12A G47C C70U G120C	-1.04
G45U U87A	-1.32
G44A C80A C124A	-3.54
G47U A111G	-0.984
C12A U78C A84U	-1.77
U21A G44A G113C	-3.04
U87G A111C	1.16
U112A U133A	1.53
A5G G60C G69A	-5.79
G17A C62G G63A A74C A90C U109G	-5.9
C11U C40G C53U C73G C79A C86U	-4.32
C8G C56A C94U	0.74
C72A C102A	-1.51
U55C G93C U133A	-0.554
U9C C62A A75G C94A G110A	-4.36
C12U C34U G61A C104U U132A U133G	-3.5
A2G G45U	-1.83
G65A G117U	-6.21
A41U U129C	-0.914
G77A U132C	-0.208
G48C U78G	-0.55

Variant	polymerase ribozyme fitness (log ratio)
U33A G63U	-6.72
A6C A50C C70A G127U	-4.88
A18C A50U G60U C102A A119G G127U	-7.23
C49U G58C G60U C114U U129A	-5.08
C11A G113A C114U U133G	-5
C86U A111U	-2.11
C15U G39A G60A G117C G120A	-4.8
C8U A29G C94A U116G	-2.84
A43G U54C A95U A121C U129A	-2.96
C49G C97G	-4.99
C22U G52A C88U	-5.75
C28U C73U	-1.11
C3G C72A C94G C124A	-1.46
C11U U32C C123G	1.18
C13U G39U G44U A68G	-5.44
G51U G61U	-3.14
C28G C40G G48U C53U	-3.75
A6C G47A C124G	0.159
G10U G71U C94A	-1.09
A27U C72A C82A U112C G122C	-2.28
C15U U59G U96C C102A G120C U133A	-2.28
A18U G44U C124U	-1.28
C13U C56G C72A A105U	-2.1
A41U C123G G135U	0.204

Variant	polymerase ribozyme fitness (log ratio)
C34A A41G C88U C101U	-3.38
U30A G71U	-4.91
A43U C62G U112G G113C G122U	-6.69
G120A C124U	1.89
C49A C80A U112A	-5.57
G39U C76U	-0.958
C64A G117A	-6.29
A50U G69A C101A U130G	-6.9
A6U G45C C101U G110C	-5.31
C12U G48U C94U	-1.04
A37U G61U C114A U130A	-1.52
C73A C101U	0.2
G60A A111U	-3.16
G10A C34U U87G	-3.98
C12A G51A C62U U96A	-5.39
U14A C62G C89U C123A	-3.6
C34U G61C C80U A83G	-7.08
G45C A50C	-0.909
G69C C82U U126G	-3.1
C28G C56U C80U	-4.97
U87A U92A	-2.55
C8G U9C A16G A24U C28U U92C U96A C99A A111U G120C	-6.18
G35A C123A	-3.41
C49A C56G G69U C72A	-3.13

Variant	polymerase ribozyme fitness (log ratio)
C22G G60C A95C A121U	-2.32
A27U C49G G51A C80A C99U G120C U130A	-8.17
C53A U81C U109A G110U U126G	-5.92
C34U G60A C124A	-3.3
A16U C70A A74U	-4.08
A29C C31G G61U C101U A121U C124A	-5.89
A74C C89A U96A C115A	-3.51
A43U C76A G135U	-3.89
G51C C73G C114A	-6.6
C3A C62U	-1.99
C11G A16U G47C G60A	-3.03
C13U U32G G35A G51A C114A G122C	-6.85
G19A C62U U78C G127C	-4.4
U9C A37U	0.172
C4A G110A	-2.19
A43U A111C	-1.94
C80A G113C	-5.5
G39A G71A	-1.08
A6G U7C C12U G23U C70U C72A U87G	-6.73
G110U G127U	-1.57
A121C U130A	0.644
C8U C15A A118U A121C	0.853
C40A C80A G93U C101A	-3.95
C4G U7C G69U	-0.0887

Variant	polymerase ribozyme fitness (log ratio)
G71U C86U	-0.637
C8U A24G G113U C114U G122A	-1.73
C15U A43C	-2.99
C3G C49U C72U U131A	-4.85
A43G C89U	-1.2
C115U U125A	-0.551
G52C U54G U87C A100U	-1.94
C15U C53U G61U C97U	-2.21
G17U C89G	-2.98
C11U C15A C64U A84U	-2.56
G58A G117A G120A U132C	-3.08
U54A C72A C73U A91C C115U	-4.35
A2G C49U C79A C86G	-2.96
C12G U132A	-0.729
G42U C94U G113A	-2.64
A18U C124U	-1.01
A75G G93C U116A	-4.1
A84U C102A A103G U109G C114U	-3.45
C13A C49G G122U C124G	-0.569
C28A G39U C64U C104A A119G	-5.82
G36U U55C A66C	-3.51
C73A A95G C104A G110U	-3.5
U78A C89G	-1.56
A18U C72U C85A	-3.5

Variant	polymerase ribozyme fitness (log ratio)
C8U C73U	1.07
G61A U96G U130C	-0.371
A68G G113C	-4.28
G44U A50U G60C C101A C115A	-4.05
C15A G36U G61A	-3.38
G10C C11U C94G	-0.146
G60A U87G C102G G113A	-6.32
C11A U21C U112G	-0.593
C11U U125G	-1.31
G48A C62A G69U	-5.25
C70A U87A	-1.22
C11U G48U G57U G61C C89U U106A	-3.19
G10C G120C	1.04
G10U C20U U32A U125G	-4.96
C11U G44C A46U	-2.61
C4U G113A	-1.15
A29G C40U G63A C104U G122A	-2.07
C8A A41U A84G	-2.05
C12G C20A G69A C79U C123U	-5.46
G63U C89U G93A G120A	-1.65
C72G G77C U78C A105G A119G	-2.47
U9G U92A U96G U109A	-5.59
A121U C124A	2.1
A43U G63A A95G G120U G128U	-4.88

Variant	polymerase ribozyme fitness (log ratio)
C8A C49U A100U G120A	0.731
C53A G60A A105C	-2.91
G51A C115G	-4.23
G45C G77U	-1.32
G35C C76G	-4.89
A5U C12U U21A A84G	-2.37
C3A C34A G45C C114U	-6.33
C72U A91G	-1.21
U9G G61A A66U C82A	-1.09
G36C A37G G60C A121U	0.419
U21C C62U A83U U87G	0.103
C3A C34A	-3.91
C40G G63U	-1.85
C8G U38A U54G C62A C98A C123U	-7.56
C12U G44A U131A	-1.07
C28G G77U U78A C82U	-3.54
C28U G71U A83U C86G C123G	-2.39
C56U C79A C99U C102A G120A G127U	-5.84
G63U C85A	-3.39
A18C C89G U106A	-2.89
A6G G47U C64U C99A G120A	-5.98
U9G A41U A95C U131A	-1.93
C64A G120A	-5.35
